Target: human hormone-sensitive lipase (HSL), adipocyte isoform (human)
Assay: cryo-EM structure

stoichiometry N: 2
Substance: human hormone-sensitive lipase (HSL), adipocyte isoform (enzyme)

— paper PMC11993637
